In PMC4687524, “Molecular Properties and Functional Divergence of the Dehydroascorbate Reductase Gene Family in Lower and Higher Plants” (PLoS ONE, 2015) one finds Km data, which are given here for three molecules.

Test in all cases: A265 increase (ascorbate formation), nonlinear regression
One data set concerns T1, ZmDHAR2.
T1 construct: gene DHAR2; clade I
Type of data set: biochemical, Zea mays. Conditions: 0.42 mM GSH; DHA 0.013-1.677 mM; 90 mM potassium phosphate pH 6.5, 25 C; read-out: Kinetic constants / K m ^DHA. The text has this: A265 increase (ascorbate formation), nonlinear regression on ZmDHAR2

Substrate in data set [1]: O=C1O[C@H]([C@@H](O)CO)C(=O)C1=O
Type of data set: biochemical, Selaginella moellendorffii. Conditions: 0.42 mM GSH, DHA 0.013-1.677 mM, 90 mM potassium phosphate pH 6.5, 25 C. The text has this:
A265 increase (ascorbate formation), nonlinear regression on SmDHAR1

Substrate in data set [2]: O=C1O[C@H]([C@@H](O)CO)C(=O)C1=O
Type of data set: biochemical, Picea abies. Conditions: 0.42 mM GSH, DHA 0.013-1.677 mM, 90 mM potassium phosphate pH 6.5, 25 C. The source says: A265 increase (ascorbate formation), nonlinear regression on PabDHAR2

Take `O=C1O[C@H]([C@@H](O)CO)C(=O)C1=O` [dehydroascorbate]: the Km with ZmDHAR2 worked out at 68 ± 9 µM.

B1: SmDHAR1 (Selaginella moellendorffii) (protein)
chain: MAVATTEAVEVLVKAANGDPSRLGDCPFSQRVLLTLEEKGIPYNSKFVDMENKPAWFLEANPEGKVPVVKDDGKWVADSDVITQLIETKFPSPSLVTPPEKSSVGSKIFSSFVKFLKSKDPSDGSEAALLEELKTLDEYLAKNGPFVNGSNISAVDLSLAPKLYHLKIALGHYKQWSVPQNLTNLNSYMEALFKRESFQKTMAPAEVVVKGWAKHLSA
notes: full length without predicted signal peptide, N-terminal 6xHis (pET-30a), E. coli BL21(DE3), Ni Sepharose; cytosolic, clade I
With B1, the Km in data set [1] turned out to be 115 ± 4 µM.

B2: PabDHAR2 (Picea abies) (protein)
chain: MSDLEIFSKAAPGTGSPSKERGDCPFSQRIFLELEELGLPYTATYIQEGADKPHWFMEKNPSGLMPVLRDRETWIQDSDKIAQYLDDHYAENTLRTQVEFKNVGSKIFPIFTKWLQCKDPNSACRDEFVDELVGFDRHLQNHGPYIAGKRPTDSDFALAPKLRHARVALAHFMDFQFPRELGALQNYMNRMESRESFEKTNYPNDMIIQGWRAKFNLPEKIANAS
notes: full length without predicted signal peptide, N-terminal 6xHis (pET-30a), E. coli BL21(DE3), Ni Sepharose; cytosolic, clade II, five exons
Consider B2, for which the Km in data set [2] came out at 118 ± 1 µM.
